Data on two molecules can be found in article PMC3505976.

Data set [1] deals with T1, hIghmbp2hd (helicase core) (human (Homo sapiens), UniProt P38935 1-652).
T1 sequence: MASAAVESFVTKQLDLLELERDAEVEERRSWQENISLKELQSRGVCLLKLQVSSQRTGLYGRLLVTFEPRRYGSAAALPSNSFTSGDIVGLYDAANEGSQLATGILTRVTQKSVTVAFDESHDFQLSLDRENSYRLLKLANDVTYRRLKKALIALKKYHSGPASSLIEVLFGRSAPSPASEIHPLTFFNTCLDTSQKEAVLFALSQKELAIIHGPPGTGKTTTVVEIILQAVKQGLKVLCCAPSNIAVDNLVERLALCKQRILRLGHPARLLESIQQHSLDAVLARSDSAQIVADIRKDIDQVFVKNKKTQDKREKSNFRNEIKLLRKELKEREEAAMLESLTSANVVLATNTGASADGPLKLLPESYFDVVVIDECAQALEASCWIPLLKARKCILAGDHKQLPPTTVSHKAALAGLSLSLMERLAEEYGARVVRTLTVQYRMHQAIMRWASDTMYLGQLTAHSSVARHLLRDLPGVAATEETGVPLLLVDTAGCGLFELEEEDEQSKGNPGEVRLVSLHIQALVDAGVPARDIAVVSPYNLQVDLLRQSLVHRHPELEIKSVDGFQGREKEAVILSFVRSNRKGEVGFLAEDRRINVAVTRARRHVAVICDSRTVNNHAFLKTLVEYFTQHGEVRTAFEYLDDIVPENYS
Nature of the data set: fluorescence anisotropy. For orientation: Polarisation of emitted light reports the rotation of a fluorescent probe.

For data set [2], the target named is T2, mIghmbp2hd-R3H (helicase core + R3H) (mouse, UniProt P40694 1-786).
T2 sequence: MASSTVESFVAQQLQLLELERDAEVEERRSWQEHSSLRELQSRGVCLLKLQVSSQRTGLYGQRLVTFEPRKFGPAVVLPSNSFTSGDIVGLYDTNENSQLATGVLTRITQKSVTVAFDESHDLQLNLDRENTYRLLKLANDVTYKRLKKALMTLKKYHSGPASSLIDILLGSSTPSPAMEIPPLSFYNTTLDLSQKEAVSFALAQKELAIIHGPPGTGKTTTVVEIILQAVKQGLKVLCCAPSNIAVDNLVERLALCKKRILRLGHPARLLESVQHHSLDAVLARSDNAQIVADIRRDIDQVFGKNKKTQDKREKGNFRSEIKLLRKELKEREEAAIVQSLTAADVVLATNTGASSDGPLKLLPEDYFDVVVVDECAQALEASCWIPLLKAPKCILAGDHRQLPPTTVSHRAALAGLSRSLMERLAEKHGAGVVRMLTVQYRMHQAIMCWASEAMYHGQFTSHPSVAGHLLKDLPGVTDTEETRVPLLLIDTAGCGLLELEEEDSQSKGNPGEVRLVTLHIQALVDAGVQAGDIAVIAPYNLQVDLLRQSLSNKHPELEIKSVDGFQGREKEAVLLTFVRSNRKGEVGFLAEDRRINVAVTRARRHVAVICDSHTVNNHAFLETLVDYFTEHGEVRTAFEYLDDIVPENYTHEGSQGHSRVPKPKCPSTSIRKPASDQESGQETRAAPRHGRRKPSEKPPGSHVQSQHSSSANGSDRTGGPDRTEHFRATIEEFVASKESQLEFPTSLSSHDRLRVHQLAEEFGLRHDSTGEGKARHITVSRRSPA
Kind of data set: fluorescence anisotropy.

The target of data set [3] is T1, hIghmbp2hd (helicase core). Nature of the data set: crystal structure.

What is called Kd is the constant that tells how readily two partners part at equilibrium. On to UUUUUUUUUUUUUUU (ssRNA) [U15 ssRNA], for which the Kd came to 1080 ± 130 nM in data set [1] and 107 ± 29 nM in data set [2].

As to AAAAAAAAAA (ssRNA) [A10 ssRNA], in data set [3], the binding result was “binds”.
